Drawing on patent publication US20210363194A1, this text covers Kd for two substances.

In assay [1] the target is recombinant mouse mannose-binding lectin (MBL) (mouse). The experiment in a line: biolayer interferometry; eOD-60mer dilutions on biosensors loaded with biotinylated recombinant mouse MBL; apparent affinity [eOD-60mer]. Background: Biolayer interferometry detects binding as a change in optical thickness at a sensor tip.
Assay [2] concerns the target eOD-60mer (eOD-GT8 60mer; eOD-GT8 fused to lumazine synthase, self-assembled 60-mer nanoparticle). In words: biolayer interferometry, eOD-60mer in solution on immobilized biotinylated mouse MBL; apparent affinity (avidity).

For the substance “eOD-60mer (eOD-GT8 60mer; eOD-GT8 fused to lumazine synthase, self-assembled 60-mer nanoparticle)”, the Kd in assay [1] turned out to be 3.78 pM.

In the case of “recombinant mouse mannose-binding lectin (MBL)”, the Kd in assay [2] stood at 4 pM.
